Laboratory results: PMC2879411, “Molecular Basis for the Dual Function of Eps8 on Actin Dynamics: Bundling and Capping” (PLoS Biology, 2010)

Biological target: monomeric actin (CaATP-G-actin) from rabbit muscle, unlabelled (rabbit, UniProt P68135 1-377)
Test: cell-based or functional assay

VCPEGARVFNQITVQKAALEDSNG [Eps8 isolated predicted helix H5 (residues 765–788)]
Kd from inhibition of barbed end growth (spectrin-actin seeds): 40 µM
Kd from inhibition of pointed end growth (gelsolin-actin seeds): 32 µM
